Data on seven molecules can be found in patent US20220119490A1 (Genentech, published 2022).

The Kd is the concentration at which binding is half-saturated. Read a high Kd as lower affinity.

B1: LILRB5 expressed on cells (receptor, human, UniProt O75023 24-590, looked up)
chain: GTLPKPTLWAEPASVIARGKPVTLWCQGPLETEEYRLDKEGLPWARKRQNPLEPGAKAKFHIPSTVYDSAGRYRCYYETPAGWSEPSDPLELVATGFYAEPTLLALPSPVVASGGNVTLQCDTLDGLLTFVLVEEEQKLPRTLYSQKLPKGPSQALFPVGPVTPSCRWRFRCYYYYRKNPQVWSNPSDLLEILVPGVSRKPSLLIPQGSVVARGGSLTLQCRSDVGYDIFVLYKEGEHDLVQGSGQQPQAGLSQANFTLGPVSRSHGGQYRCYGAHNLSPRWSAPSDPLDILIAGLIPDIPALSVQPGPKVASGENVTLLCQSWHQIDTFFLTKEGAAHPPLCLKSKYQSYRHQAEFSMSPVTSAQGGTYRCYSAIRSYPYLLSSPSYPQELVVSGPSGDPSLSPTGSTPTPGPEDQPLTPTGLDPQSGLGRHLGVVTGVSVAFVLLLFLLLFLLLRHRHQSKHRTSAHFYRPAGAAGPEPKDQGLQKRASPVADIQEEILNAAVKDTQPKDGVEMDAPAAASEAPQDVTYAQLHSLTLRREATEPPPSQEREPPAEPSIYAPLAIH
notes: whole, on cells
B2: EDAR expressed on cells (receptor, human, UniProt Q9UNE0 27-448, looked up)
chain: EYSNCGENEYYNQTTGLCQECPPCGPGEEPYLSCGYGTKDEDYGCVPCPAEKFSKGGYQICRRHKDCEGFFRATVLTPGDMENDAECGPCLPGYYMLENRPRNIYGMVCYSCLLAPPNTKECVGATSGASANFPGTSGSSTLSPFQHAHKELSGQGHLATALIIAMSTIFIMAIAIVLIIMFYILKTKPSAPACCTSHPGKSVEAQVSKDEEKKEAPDNVVMFSEKDEFEKLTATPAKPTKSENDASSENEQLLSRSVDSDEEPAPDKQGSPELCLLSLVHLAREKSATSNKSAGIQSRRKKILDVYANVCGVVEGLSPTELPFDCLEKTSRMLSSTYNSEKAVVKTWRHLAESFGLKRDEIGGMTDGMQLFDRISTAGYSIPELLTKLVQIERLDAVESLCADILEWAGVVPPASQPHAAS
notes: whole, on cells; C-terminally tagged in the co-IP; also called EDAR-HA
B3: CNTFR extracellular domain (receptor, human, UniProt P26992 23-342, looked up)
chain: QRHSPQEAPHVQYERLGSDVTLPCGTANWDAAVTWRVNGTDLAPDLLNGSQLVLHGLELGHSGLYACFHRDSWHLRHQVLLHVGLPPREPVLSCRSNTYPKGFYCSWHLPTPTYIPNTFNVTVLHGSKIMVCEKDPALKNRCHIRYMHLFSTIKYKVSISVSNALGHNATAITFDEFTIVKPDPPENVVARPVPSNPRRLEVTWQTPSTWPDPESFPLKFFLRYRPLILDQWQHVELSDGTAHTITDAYAGKEYIIQVAAKDNEIGTWSDWSVAAHATPWTEEPRHLTTEAQAAETTTSTTSSLAPPPTTKICDPGELGS
notes: extracellular domain; Soluble query, streptavidin tetramer
B4: podoplanin (PDPN) extracellular domain (receptor, human, UniProt Q86YL7 23-131, looked up)
chain: ASTGQPEDDTETTGLEGGVAMPGAEDDVVTPGTSEDRYKSGLTTLVATSVNSVTGIRIEDLPTSESTVHAQEQSPSATASNVATSHSTEKVDGDTQTTVEKDGLSTVTL
modifications: biotinylated Avi tag in the tetramer
notes: extracellular domain; Streptavidin-APC tetramer in the screens; monomeric Avi-tagged ectodomain for KD; also called gp38; Aggrus
B5: LILRB5 extracellular domain (receptor, human, UniProt O75023 24-458, looked up)
chain: GTLPKPTLWAEPASVIARGKPVTLWCQGPLETEEYRLDKEGLPWARKRQNPLEPGAKAKFHIPSTVYDSAGRYRCYYETPAGWSEPSDPLELVATGFYAEPTLLALPSPVVASGGNVTLQCDTLDGLLTFVLVEEEQKLPRTLYSQKLPKGPSQALFPVGPVTPSCRWRFRCYYYYRKNPQVWSNPSDLLEILVPGVSRKPSLLIPQGSVVARGGSLTLQCRSDVGYDIFVLYKEGEHDLVQGSGQQPQAGLSQANFTLGPVSRSHGGQYRCYGAHNLSPRWSAPSDPLDILIAGLIPDIPALSVQPGPKVASGENVTLLCQSWHQIDTFFLTKEGAAHPPLCLKSKYQSYRHQAEFSMSPVTSAQGGTYRCYSAIRSYPYLLSSPSYPQELVVSGPSGDPSLSPTGSTPTPGPEDQPLTPTGLDPQSGLGRHLG
notes: extracellular domain
B6: LILRB1 extracellular domain (receptor, human, UniProt Q8NHL6 24-461, looked up)
chain: GHLPKPTLWAEPGSVITQGSPVTLRCQGGQETQEYRLYREKKTALWITRIPQELVKKGQFPIPSITWEHAGRYRCYYGSDTAGRSESSDPLELVVTGAYIKPTLSAQPSPVVNSGGNVILQCDSQVAFDGFSLCKEGEDEHPQCLNSQPHARGSSRAIFSVGPVSPSRRWWYRCYAYDSNSPYEWSLPSDLLELLVLGVSKKPSLSVQPGPIVAPEETLTLQCGSDAGYNRFVLYKDGERDFLQLAGAQPQAGLSQANFTLGPVSRSYGGQYRCYGAHNLSSEWSAPSDPLDILIAGQFYDRVSLSVQPGPTVASGENVTLLCQSQGWMQTFLLTKEGAADDPWRLRSTYQSQKYQAEFPMGPVTSAHAGTYRCYGSQSSKPYLLTHPSDPLELVVSGPSGGPSSPTTGPTSTSGPEDQPLTPTGSDPQSGLGRHLGV
notes: extracellular domain; also called leukocyte immunoglobulin-like receptor subfamily B member 1
B7: LILRA3 (ECD-Fc fusion protein) (Fc fusion, human, UniProt Q8N6C8 24-439, looked up)
chain: GPLPKPTLWAEPGSVITQGSPVTLRCQGSLETQEYHLYREKKTALWITRIPQELVKKGQFPILSITWEHAGRYCCIYGSHTAGLSESSDPLELVVTGAYSKPTLSALPSPVVTSGGNVTIQCDSQVAFDGFILCKEGEDEHPQCLNSHSHARGSSRAIFSVGPVSPSRRWSYRCYGYDSRAPYVWSLPSDLLGLLVPGVSKKPSLSVQPGPVVAPGEKLTFQCGSDAGYDRFVLYKEWGRDFLQRPGRQPQAGLSQANFTLGPVSRSYGGQYTCSGAYNLSSEWSAPSDPLDILITGQIRARPFLSVRPGPTVASGENVTLLCQSQGGMHTFLLTKEGAADSPLRLKSKRQSHKYQAEFPMSPVTSAHAGTYRCYGSLSSNPYLLTHPSDPLELVVSGAAETLSPPQNKSDSKAGE
notes: extracellular domain; Immobilized on the SPR chip

In assay [1] the target is T1, LDLR extracellular domain (human, UniProt P01130 22-788).
T1 construct: extracellular domain; Soluble query, streptavidin tetramer; also called low-density lipoprotein receptor
T1 sequence (P01130 22-788): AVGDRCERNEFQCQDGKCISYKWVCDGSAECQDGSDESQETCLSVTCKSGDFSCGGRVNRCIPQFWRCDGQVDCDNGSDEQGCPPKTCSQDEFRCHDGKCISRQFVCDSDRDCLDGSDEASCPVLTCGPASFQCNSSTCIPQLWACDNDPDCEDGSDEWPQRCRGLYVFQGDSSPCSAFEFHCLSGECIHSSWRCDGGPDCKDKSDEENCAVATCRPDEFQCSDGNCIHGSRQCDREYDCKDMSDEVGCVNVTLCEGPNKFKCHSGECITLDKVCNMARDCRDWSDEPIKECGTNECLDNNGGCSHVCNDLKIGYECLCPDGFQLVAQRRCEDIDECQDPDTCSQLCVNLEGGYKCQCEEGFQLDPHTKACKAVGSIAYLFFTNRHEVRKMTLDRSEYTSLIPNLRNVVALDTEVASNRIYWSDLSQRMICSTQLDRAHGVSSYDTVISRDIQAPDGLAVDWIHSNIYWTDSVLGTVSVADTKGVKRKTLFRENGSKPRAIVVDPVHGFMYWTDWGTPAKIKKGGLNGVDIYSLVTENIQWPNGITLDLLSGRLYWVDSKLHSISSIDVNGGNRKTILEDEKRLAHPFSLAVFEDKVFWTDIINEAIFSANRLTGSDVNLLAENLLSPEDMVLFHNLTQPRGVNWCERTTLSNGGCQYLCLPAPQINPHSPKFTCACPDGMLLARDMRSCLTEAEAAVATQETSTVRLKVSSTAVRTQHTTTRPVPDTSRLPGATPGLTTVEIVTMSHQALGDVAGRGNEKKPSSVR
Description: cell surface interaction assay: ECD tetramer on transfected cells (FIG. 5N).

Assay [2] concerns the target B6. In words: cell surface interaction assay: soluble multimerized LILRB on transfected cells.
Assay [3] has as its target T2, LILRB4 expressed on cells (human, UniProt Q8NHJ6 22-448).
T2 construct: whole, on cells; C-terminally tagged in the co-IP; also called LILRB4-FLAG
Description: cell surface interaction assay: ECD tetramer on transfected cells (FIG. 5N).

Assay [4] concerns the target T3, CLEC-2 extracellular domain (human, UniProt Q9P126 55-229).
T3 construct: extracellular domain; Recombinant ECD in SPR and CAF assays; streptavidin tetramer in organoid cultures; also called CLEC1B; rCLEC-2
In words: SPR, Langmuir model; CLEC-2 ECD immobilized, monomeric Avi-tagged PDPN ectodomain as analyte. On the procedure: (§1) SPR was measured using a Proteon XPR36 Instrument (Biorad) or a Biacore 3000 (GE Healthcare). […] Bulk refractive index changes were removed by substrating a reference flow response. For KD calculations, 300-400 resonance units were immobilized, and kinetic data were fit to equilibrium or a Langmuir model to calculate kinetic parameters for CD177 and CLEC-2 binding, respectively. […] All sensorgrams were analyzed with BiaEvaluation 4.1 (Biacore) or Proteon Manager 3.1.0.6 (Proteon) software.
Background: Surface plasmon resonance follows binding to a sensor surface in real time, without labels.

Assay [5] concerns the target T4, CD177 extracellular domain (human, UniProt Q8N6Q3 22-408, limits assumed).
T4 construct: extracellular domain; ECD-gD-GPI on COS-7 cells in the screen; recombinant ECD in SPR and CAF assays; streptavidin tetramer in organoid cultures; also called NB1; PRV1
T4 sequence (looked up): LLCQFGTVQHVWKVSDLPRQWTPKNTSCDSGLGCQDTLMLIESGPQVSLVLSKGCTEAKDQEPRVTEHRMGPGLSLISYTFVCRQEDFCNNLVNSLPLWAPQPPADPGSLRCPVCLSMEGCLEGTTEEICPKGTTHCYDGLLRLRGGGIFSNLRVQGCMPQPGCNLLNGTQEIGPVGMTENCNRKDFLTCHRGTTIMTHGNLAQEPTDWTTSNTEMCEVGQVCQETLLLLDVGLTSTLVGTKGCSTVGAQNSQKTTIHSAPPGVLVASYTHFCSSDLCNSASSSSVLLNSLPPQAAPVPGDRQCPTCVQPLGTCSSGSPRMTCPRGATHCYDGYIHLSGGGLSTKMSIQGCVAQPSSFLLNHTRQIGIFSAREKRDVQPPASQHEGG
Description: SPR, fit to equilibrium; CD177 ECD immobilized, monomeric Avi-tagged PDPN ectodomain as analyte. On the procedure: as §1

Assay [6] concerns the target T5, LDLR expressed on cells (human, UniProt P01130 22-860).
T5 construct: whole, on cells
Description: cell surface interaction assay: soluble multimerized LILRB on transfected cells.

Assay [7] concerns the target T6, FLT4 expressed on cells (human, UniProt P35916 25-1363).
T6 construct: whole, on cells; also called VEGFR3; vascular endothelial growth factor receptor 3
The assay is described as above.

For assay [8], the target named is T7, IL6R expressed on cells (human, UniProt P08887 20-468).
T7 construct: whole, on cells; C-terminally tagged in the co-IP; also called IL6R-HA
T7 sequence (looked up): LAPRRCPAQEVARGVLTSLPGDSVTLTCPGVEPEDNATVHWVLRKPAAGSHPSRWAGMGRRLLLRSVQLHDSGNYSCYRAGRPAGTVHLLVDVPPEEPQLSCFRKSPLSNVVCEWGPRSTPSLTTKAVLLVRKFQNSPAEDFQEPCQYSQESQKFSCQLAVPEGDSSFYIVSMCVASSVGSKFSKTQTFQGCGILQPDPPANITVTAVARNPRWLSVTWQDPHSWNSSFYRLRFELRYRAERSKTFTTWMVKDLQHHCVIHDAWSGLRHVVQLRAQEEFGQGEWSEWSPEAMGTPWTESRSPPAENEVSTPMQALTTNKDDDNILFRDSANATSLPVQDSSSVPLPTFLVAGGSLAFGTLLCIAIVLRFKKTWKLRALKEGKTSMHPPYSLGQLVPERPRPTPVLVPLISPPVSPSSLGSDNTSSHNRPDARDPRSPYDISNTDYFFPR
The description is as above.

Assay [9] deals with T8, EPHA3 extracellular domain (human, UniProt P29320 21-541).
T8 construct: extracellular domain; ECD construct; also called ephrin type-A receptor 3
T8 sequence (looked up): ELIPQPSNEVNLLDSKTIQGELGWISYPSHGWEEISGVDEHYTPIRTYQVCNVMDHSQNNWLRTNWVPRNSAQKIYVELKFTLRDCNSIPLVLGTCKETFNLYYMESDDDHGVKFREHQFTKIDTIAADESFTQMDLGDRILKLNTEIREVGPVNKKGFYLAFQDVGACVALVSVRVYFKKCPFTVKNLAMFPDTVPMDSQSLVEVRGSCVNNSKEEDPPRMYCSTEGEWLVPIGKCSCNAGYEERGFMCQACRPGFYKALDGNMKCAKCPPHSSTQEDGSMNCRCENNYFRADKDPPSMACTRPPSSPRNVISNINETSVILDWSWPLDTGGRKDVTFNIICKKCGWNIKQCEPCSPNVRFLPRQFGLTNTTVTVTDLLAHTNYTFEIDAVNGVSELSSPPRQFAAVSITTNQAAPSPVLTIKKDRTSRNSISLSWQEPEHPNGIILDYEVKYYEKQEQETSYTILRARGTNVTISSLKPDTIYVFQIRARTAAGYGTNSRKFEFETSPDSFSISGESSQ
In words: SPR, LILRA3 ECD-Fc immobilized, ECD-Fc analytes at 250 nM. From the text: (§2) An irrelevant Fc-tagged protein was used as a control. Sensorgram shown is representative of at least 3 independent runs.

In assay [10] the target is T9, EPHA5 (human, UniProt P54756).
T9 construct: extracellular domain; analyte at 250 nM on immobilized LILRA3
T9 sequence (P54756 25-573): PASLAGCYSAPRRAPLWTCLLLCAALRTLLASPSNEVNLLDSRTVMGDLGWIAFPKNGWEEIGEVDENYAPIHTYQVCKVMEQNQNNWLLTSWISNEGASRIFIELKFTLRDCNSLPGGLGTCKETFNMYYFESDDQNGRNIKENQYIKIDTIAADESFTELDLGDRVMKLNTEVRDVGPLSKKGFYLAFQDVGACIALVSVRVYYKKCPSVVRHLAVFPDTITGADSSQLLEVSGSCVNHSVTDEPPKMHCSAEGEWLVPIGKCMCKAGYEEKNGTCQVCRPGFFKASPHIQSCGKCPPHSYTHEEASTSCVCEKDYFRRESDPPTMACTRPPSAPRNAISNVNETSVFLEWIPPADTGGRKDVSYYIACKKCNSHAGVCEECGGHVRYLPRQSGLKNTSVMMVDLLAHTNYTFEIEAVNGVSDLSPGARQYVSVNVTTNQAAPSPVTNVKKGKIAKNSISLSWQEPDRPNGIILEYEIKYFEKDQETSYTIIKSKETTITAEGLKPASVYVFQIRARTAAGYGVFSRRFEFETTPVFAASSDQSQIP
Described as above.
Description: as §2

T3 sequence (Q9P126 55-229): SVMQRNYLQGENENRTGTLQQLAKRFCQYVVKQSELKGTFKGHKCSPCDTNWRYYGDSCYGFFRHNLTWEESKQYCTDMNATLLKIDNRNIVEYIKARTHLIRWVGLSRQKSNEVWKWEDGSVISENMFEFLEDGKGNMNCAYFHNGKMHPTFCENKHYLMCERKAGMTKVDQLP
T6 sequence (P35916 25-1363): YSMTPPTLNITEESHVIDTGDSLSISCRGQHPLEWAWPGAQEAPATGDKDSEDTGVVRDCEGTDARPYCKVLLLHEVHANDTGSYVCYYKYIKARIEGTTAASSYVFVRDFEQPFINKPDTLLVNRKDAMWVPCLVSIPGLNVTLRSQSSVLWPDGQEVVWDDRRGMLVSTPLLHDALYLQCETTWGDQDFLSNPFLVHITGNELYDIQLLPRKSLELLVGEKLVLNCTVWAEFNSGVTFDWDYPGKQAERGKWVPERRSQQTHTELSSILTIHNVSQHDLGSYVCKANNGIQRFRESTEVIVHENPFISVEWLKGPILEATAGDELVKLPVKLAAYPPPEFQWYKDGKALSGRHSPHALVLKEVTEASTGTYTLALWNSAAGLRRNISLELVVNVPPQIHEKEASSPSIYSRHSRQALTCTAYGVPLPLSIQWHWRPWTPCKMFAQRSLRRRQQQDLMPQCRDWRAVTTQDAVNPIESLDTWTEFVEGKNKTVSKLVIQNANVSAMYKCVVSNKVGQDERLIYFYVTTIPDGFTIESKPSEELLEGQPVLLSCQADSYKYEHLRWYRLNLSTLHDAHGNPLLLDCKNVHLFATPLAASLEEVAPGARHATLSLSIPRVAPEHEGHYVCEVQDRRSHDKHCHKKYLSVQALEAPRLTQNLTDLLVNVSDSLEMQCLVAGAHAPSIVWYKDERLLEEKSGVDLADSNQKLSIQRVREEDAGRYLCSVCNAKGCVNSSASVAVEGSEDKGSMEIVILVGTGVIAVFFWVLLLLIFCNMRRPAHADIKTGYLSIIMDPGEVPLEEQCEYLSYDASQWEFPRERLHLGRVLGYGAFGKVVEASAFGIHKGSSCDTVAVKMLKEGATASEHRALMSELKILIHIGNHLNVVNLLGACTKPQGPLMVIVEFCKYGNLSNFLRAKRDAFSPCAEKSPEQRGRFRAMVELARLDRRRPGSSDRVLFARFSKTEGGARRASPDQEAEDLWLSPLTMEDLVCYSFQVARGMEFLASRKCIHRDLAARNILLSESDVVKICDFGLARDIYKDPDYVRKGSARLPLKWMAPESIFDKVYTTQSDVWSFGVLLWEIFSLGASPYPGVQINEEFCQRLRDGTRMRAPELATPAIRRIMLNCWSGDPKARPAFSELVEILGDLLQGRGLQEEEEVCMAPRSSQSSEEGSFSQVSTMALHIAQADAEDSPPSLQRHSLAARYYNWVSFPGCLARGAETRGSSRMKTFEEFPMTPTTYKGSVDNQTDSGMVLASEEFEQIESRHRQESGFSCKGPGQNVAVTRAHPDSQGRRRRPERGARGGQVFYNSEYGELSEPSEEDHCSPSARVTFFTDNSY
T5 sequence (P01130 22-860): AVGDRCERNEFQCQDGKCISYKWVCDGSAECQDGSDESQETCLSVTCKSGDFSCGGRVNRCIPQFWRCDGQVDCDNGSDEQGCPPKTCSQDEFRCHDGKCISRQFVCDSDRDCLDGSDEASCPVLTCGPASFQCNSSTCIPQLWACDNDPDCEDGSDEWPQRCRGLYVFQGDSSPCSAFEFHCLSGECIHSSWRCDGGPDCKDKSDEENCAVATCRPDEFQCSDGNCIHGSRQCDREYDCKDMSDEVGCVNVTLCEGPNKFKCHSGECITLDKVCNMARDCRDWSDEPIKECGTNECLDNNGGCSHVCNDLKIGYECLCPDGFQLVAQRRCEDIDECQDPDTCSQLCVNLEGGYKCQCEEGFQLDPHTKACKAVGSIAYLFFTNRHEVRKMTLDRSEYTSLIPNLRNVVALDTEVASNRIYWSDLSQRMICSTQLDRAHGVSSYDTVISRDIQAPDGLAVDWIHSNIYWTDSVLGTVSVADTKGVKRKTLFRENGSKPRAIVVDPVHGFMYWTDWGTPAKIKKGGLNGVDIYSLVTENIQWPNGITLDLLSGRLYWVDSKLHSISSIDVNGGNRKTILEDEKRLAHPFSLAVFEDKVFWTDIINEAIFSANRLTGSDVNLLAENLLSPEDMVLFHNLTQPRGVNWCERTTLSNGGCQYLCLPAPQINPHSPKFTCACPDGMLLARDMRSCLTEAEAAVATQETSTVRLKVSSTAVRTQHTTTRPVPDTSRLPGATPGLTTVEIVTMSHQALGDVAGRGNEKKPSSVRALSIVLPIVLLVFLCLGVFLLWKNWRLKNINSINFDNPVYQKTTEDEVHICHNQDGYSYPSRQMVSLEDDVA

As to B1, the binding result in assay [1] is reported as “binds”.

With B2, the binding result in assay [2] is “binds”.

In the case of B3, the binding result in assay [3] is recorded as “binds”.

As for B4, the Kd in [4] was found to be 210 nM; in [5], 3.3 µM.

In the case of B5, the binding result in assay [6] was “binds”.

Turning to B6, the binding result in assay [7] and in assay [8] was “binds” each time.

As to B7, the binding result in assay [9] was “binds”; in assay [10], “no binding (tested: 250 nM)”.
